In patent US7183387 (Genentech, dated 2007):

T1: human FcγRIIB α subunit extracellular domain-6His-GST fusion (human, UniProt P31994 43-217)
T1 construct: not shown: glutathione S-transferase (GST)
T1 sequence: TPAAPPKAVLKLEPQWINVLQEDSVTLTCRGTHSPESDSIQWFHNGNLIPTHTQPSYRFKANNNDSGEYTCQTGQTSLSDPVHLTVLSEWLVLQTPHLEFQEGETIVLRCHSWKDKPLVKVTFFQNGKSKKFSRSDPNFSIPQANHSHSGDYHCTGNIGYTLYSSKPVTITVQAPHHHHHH

T2: human FcγRIIA-R131 α subunit extracellular domain-6His-GST fusion (human, UniProt P12318 34-217)
T2 construct: also called FcγRIIA-Arg131; not shown: glutathione S-transferase (GST)
T2 sequence: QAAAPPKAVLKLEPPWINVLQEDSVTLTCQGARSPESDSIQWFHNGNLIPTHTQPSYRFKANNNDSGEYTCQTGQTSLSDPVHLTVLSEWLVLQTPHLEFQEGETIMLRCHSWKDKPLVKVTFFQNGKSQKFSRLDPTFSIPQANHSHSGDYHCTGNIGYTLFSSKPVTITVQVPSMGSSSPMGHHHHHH


Experiments:
Test in all cases: ELISA, IgG:IgE hexamers on receptor-GST
[1] = target: T1, human FcγRIIB α subunit extracellular …
[2] = target: T3, human FcγRIIIA-F158 α subunit extracellular domain-6His-GST fusion (human, UniProt P08637 17-208)
T3 construct: also called FcγRIIIA-Phe158; not shown: glutathione S-transferase (GST)

[3] = target: T2, human FcγRIIA-R131 α subunit …

T3 sequence (P08637 other isoform, or with tags, fused parts or gaps, form in doubt): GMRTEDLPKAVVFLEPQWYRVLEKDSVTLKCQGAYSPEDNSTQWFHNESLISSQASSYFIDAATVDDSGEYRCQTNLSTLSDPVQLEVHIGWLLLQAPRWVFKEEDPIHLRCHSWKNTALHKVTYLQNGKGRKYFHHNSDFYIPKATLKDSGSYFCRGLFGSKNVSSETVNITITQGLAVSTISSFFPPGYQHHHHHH

ratio to native IgG1 [1] | ratio to native IgG1 [2] | ratio to native IgG1 [3] | Binder
1.23 | 0.98 | 1.41 | E27 IgG1 variant N286(303)D (antibody, also called IG2 238) heavy: not shown light: DIQLTQSPSSLSASVGDRVTITCRASKPVDGEGDSYLNWYQQKPGKAPKLLIYAASYLESGVPSRFSGSGSGTDFTLTISSLQPEDFATYYCQQSHEDPYTFGQGTKVEIKRTVAAPSVFIFPPSDEQLKSGTASVVCLLNNFYPREAKVQWKVDNALQSGNSQESVTEQDSKDSTYSLSSTLTLSKADYEKHKVYACEVTHQGLSSPVTKSFNRGEC
0.12 | 0.92 | 0.21 | E27 IgG1 variant R292(309)H (antibody, also called IG2 81) heavy: not shown light: DIQLTQSPSSLSASVGDRVTITCRASKPVDGEGDSYLNWYQQKPGKAPKLLIYAASYLESGVPSRFSGSGSGTDFTLTISSLQPEDFATYYCQQSHEDPYTFGQGTKVEIKRTVAAPSVFIFPPSDEQLKSGTASVVCLLNNFYPREAKVQWKVDNALQSGNSQESVTEQDSKDSTYSLSSTLTLSKADYEKHKVYACEVTHQGLSSPVTKSFNRGEC
0.65 | 0.23 | 0.86 | E27 IgG1 variant P331(350)N (antibody, also called IG2 199) heavy: not shown light: DIQLTQSPSSLSASVGDRVTITCRASKPVDGEGDSYLNWYQQKPGKAPKLLIYAASYLESGVPSRFSGSGSGTDFTLTISSLQPEDFATYYCQQSHEDPYTFGQGTKVEIKRTVAAPSVFIFPPSDEQLKSGTASVVCLLNNFYPREAKVQWKVDNALQSGNSQESVTEQDSKDSTYSLSSTLTLSKADYEKHKVYACEVTHQGLSSPVTKSFNRGEC
0.91 | 0.42 | 1.06 | E27 IgG1 variant P331(350)E (antibody, also called IG2 200) heavy: not shown light: DIQLTQSPSSLSASVGDRVTITCRASKPVDGEGDSYLNWYQQKPGKAPKLLIYAASYLESGVPSRFSGSGSGTDFTLTISSLQPEDFATYYCQQSHEDPYTFGQGTKVEIKRTVAAPSVFIFPPSDEQLKSGTASVVCLLNNFYPREAKVQWKVDNALQSGNSQESVTEQDSKDSTYSLSSTLTLSKADYEKHKVYACEVTHQGLSSPVTKSFNRGEC
1.38 | 1.32 | 1.72 | E27 IgG1 variant N286(303)S (antibody, also called IG2 237) heavy: not shown light: DIQLTQSPSSLSASVGDRVTITCRASKPVDGEGDSYLNWYQQKPGKAPKLLIYAASYLESGVPSRFSGSGSGTDFTLTISSLQPEDFATYYCQQSHEDPYTFGQGTKVEIKRTVAAPSVFIFPPSDEQLKSGTASVVCLLNNFYPREAKVQWKVDNALQSGNSQESVTEQDSKDSTYSLSSTLTLSKADYEKHKVYACEVTHQGLSSPVTKSFNRGEC
0.78 | 0.58 | 0.91 | E27 IgG1 variant P331(350)S (antibody, also called IG2 198) heavy: not shown light: DIQLTQSPSSLSASVGDRVTITCRASKPVDGEGDSYLNWYQQKPGKAPKLLIYAASYLESGVPSRFSGSGSGTDFTLTISSLQPEDFATYYCQQSHEDPYTFGQGTKVEIKRTVAAPSVFIFPPSDEQLKSGTASVVCLLNNFYPREAKVQWKVDNALQSGNSQESVTEQDSKDSTYSLSSTLTLSKADYEKHKVYACEVTHQGLSSPVTKSFNRGEC
1.13 | 0.96 | 1.52 | E27 IgG1 variant N286(303)Q (antibody, also called IG2 23) heavy: not shown light: DIQLTQSPSSLSASVGDRVTITCRASKPVDGEGDSYLNWYQQKPGKAPKLLIYAASYLESGVPSRFSGSGSGTDFTLTISSLQPEDFATYYCQQSHEDPYTFGQGTKVEIKRTVAAPSVFIFPPSDEQLKSGTASVVCLLNNFYPREAKVQWKVDNALQSGNSQESVTEQDSKDSTYSLSSTLTLSKADYEKHKVYACEVTHQGLSSPVTKSFNRGEC
0.71 | 0.33 | 0.94 | E27 IgG1 variant P331(350)K (antibody) heavy: not shown light: DIQLTQSPSSLSASVGDRVTITCRASKPVDGEGDSYLNWYQQKPGKAPKLLIYAASYLESGVPSRFSGSGSGTDFTLTISSLQPEDFATYYCQQSHEDPYTFGQGTKVEIKRTVAAPSVFIFPPSDEQLKSGTASVVCLLNNFYPREAKVQWKVDNALQSGNSQESVTEQDSKDSTYSLSSTLTLSKADYEKHKVYACEVTHQGLSSPVTKSFNRGEC
